Publication PMC9569855 (International Journal of Molecular Sciences, 2022)

Biological target: SARS-CoV-2 wild type RBD (319-541aa) (SARS-CoV-2, UniProt P0DTC2)
Assay: SPR
Conditions: both partners purified

B1: Bamlanivimab (antibody, V domains shown)
VH: QVQLVQSGAEVKKPGSSVKVSCKASGGTFSNYAISWVRQAPGQGLEWMGRIIPILGIANYAQKFQGRVTITADKSTSTAYMELSSLRSEDTAVYYCARGYYEARHYYYYYAMDVWGQGTAVTVSS
VL: not shown
For B1, the Kd was 1.4 nM.
